Assays:
[1] = target: Chimeric S. cerevisiae MCM^(Mcm3-YDF, ybbR-LD655-Mcm6) with a humanized Mcm3 subunit, loaded on origin DNA (S. cerevisiae | human) (UniProt P29469)
[2] = target: S. cerevisiae recombinant MCM^ybbR-LD655-Mcm6 (MCM2–MCM7 complex), loaded on origin DNA (S. cerevisiae) (UniProt P29469)

Chain of UniProt P29469 (P29469 whole entry, looked up, change not shown, tested part not stated): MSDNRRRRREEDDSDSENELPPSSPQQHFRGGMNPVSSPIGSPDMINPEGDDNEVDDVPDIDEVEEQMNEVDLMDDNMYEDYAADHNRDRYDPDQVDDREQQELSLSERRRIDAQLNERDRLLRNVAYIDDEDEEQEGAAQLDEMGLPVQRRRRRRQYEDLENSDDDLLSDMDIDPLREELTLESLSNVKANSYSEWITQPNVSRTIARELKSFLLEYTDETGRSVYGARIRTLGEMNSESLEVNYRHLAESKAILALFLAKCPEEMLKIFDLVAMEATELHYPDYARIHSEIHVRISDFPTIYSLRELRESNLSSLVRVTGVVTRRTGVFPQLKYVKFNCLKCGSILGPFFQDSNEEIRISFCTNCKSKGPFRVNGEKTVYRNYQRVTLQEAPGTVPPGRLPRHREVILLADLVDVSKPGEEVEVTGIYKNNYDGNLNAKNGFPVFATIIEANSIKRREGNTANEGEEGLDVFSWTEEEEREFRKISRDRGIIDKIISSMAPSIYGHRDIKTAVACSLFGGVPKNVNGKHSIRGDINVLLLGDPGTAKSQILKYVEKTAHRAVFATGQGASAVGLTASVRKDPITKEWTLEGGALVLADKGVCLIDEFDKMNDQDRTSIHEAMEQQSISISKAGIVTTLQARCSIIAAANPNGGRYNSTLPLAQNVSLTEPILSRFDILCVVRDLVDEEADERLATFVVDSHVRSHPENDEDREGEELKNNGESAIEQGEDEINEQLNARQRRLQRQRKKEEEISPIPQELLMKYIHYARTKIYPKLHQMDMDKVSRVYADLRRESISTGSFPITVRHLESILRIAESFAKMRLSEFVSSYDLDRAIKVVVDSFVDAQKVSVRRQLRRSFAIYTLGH

Substance: Human recombinant cohesin^(STAG1, SCC1-Halo) (from UniProt Q14683 1-1233; Q9UQE7 1-1217; O60216 1-631; Q8WVM7 1-1258) (complex)
- fraction of cohesin pausing of the total observation time on encountering origin-bound MCM (single-molecule cohesin translocation assay on licensed DNA, 0.15 M NaCl) [1]: 43%
- fraction of cohesin pausing of the total observation time on encountering origin-bound MCM (single-molecule cohesin translocation assay on licensed DNA, 0.15 M NaCl) [2]: 6.4%
